Patent publication US20250152722A1, “DRUG CONJUGATE OF GLUCOCORTICOID” (SHANGHAI SHENGDI PHARMACEUTICAL CO., LTD., priority 2022, published 2025)

Legend:
human IL-4Rα protein = molecular target: T1, human IL-4Rα protein (Homo sapiens, UniProt P24394); experiment: SPR affinity for human IL-4Rα antigen protein (Biacore 8K); format: binding; conditions: captured hIL-4Rα
T1 construct: purchased SinoBiological 10402-H08H-B
T1 sequence (P24394 26-232 limits assumed): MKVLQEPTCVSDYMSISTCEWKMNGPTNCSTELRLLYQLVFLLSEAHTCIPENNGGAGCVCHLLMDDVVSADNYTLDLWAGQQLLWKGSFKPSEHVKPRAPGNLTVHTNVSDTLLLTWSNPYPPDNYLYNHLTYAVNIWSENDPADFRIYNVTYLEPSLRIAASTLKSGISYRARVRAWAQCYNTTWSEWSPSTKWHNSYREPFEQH
Experimental: An SA sensor chip (Cytiva) was placed in Biacore 8K (Cytiva), and Biotin-labeled human IL-4Rα protein (SinoBiological, CAT #10402-H08H-B) was captured on the SA sensor chip. HBS-EP+buffer solution (10 mM HEPES, 150 mM NaCl, 3 mM EDTA, 0.05% surfactant P20) was used as the mobile phase. Each test protein was serially diluted 2-fold with HBS-EP+buffer solution and then injected as an analyte. […] Analysis was performed using Biacore 8K evaluation software (Cytiva), and data on the affinities of the test proteins were obtained.

[1] = Pharmacokinetic testing on mouse model after intratracheal nebulization; format: in vivo; conditions: after ADC-2 100 μg i.t., mice
Experimental: C57BL6/J mice, 8 weeks old, male, Cyagen (Suzhou) Biosciences Co., Ltd.
Mice were given medication via intratracheal nebulization (i.t.). At different time points post-administration, 300-400 μL of blood was collected from a mandibular blood vessel, left to stand for 2 h, and then centrifuged at 7500 rpm and 4° C. for 10 min, and the serum was collected. Following the blood collection, the mice were anesthetized and immobilized, the neck muscles of the mice were bluntly isolated to expose the trachea, and an incision was horizontally made in the trachea. A lavage syringe needle was slowly inserted, the normal saline pre-loaded, pre-cooled at 4° C., was slowly injected into the lung tissue for lavage, and the bronchoalveolar lavage fluid (BALF) was collected. Lavage was performed 3 times, with 300 μL of normal saline used for each of the first two lavages and 400 μL for the third. The collected bronchoalveolar lavage fluid was centrifuged at 1000 rpm and 4° C. for 10 min, and the supernatant was collected. After the mice were euthanized, their thoracic cavities were opened, and the complete lung tissues were isolated and collected. The tissues were rinsed with PBS to remove blood stains on the surfaces, and the surface PBS was dried off with paper towels before weighing the lung tissues. […] The protein concentrations in the homogenates were measured (Pierce, 23227). […]

[2] = molecular target: T2, human IL-4Rα expressed on cells (human, UniProt P24394 26-825); experiment: flow cytometry, whole-cell binding to Karpas 299 cells expressing IL-4Rα; FITC anti-human IgG (Fab-specific) secondary antibody
T2 construct: whole, on cells; also called IL-4Rα on TF-1 cells; cells expressing human IL-4Rα
T2 sequence (looked up): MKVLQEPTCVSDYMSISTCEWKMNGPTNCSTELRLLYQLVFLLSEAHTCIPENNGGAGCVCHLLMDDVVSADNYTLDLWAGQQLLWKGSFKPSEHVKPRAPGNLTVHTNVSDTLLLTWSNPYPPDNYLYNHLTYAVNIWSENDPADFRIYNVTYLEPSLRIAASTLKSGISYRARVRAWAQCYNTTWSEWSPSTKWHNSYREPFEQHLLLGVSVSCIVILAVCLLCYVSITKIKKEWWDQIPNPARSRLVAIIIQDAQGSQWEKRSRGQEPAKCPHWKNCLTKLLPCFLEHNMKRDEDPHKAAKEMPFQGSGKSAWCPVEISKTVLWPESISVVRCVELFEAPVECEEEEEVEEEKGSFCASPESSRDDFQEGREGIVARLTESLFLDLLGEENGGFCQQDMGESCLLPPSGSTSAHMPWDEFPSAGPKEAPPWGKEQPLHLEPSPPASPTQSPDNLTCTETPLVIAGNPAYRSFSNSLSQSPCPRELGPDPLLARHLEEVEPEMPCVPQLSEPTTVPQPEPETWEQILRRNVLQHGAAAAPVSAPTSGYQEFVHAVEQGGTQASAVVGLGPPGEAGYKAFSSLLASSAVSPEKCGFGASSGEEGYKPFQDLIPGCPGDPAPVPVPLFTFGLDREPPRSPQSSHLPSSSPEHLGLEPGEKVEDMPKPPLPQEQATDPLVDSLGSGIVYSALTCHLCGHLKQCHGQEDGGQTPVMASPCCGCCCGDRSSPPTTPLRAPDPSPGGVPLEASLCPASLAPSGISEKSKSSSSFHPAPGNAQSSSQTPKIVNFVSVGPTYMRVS
Experimental: (§1) TF-1 and Karpas299 cells in the logarithmic growth phase were harvested and counted, and the cell density was adjusted. The cells were inoculated onto a 96-well round-bottom plate at 1×10⁵ cells/well. […] After the antibodies were washed off with FACS buffer (PBS containing 2% FBS), a fluorescently labeled secondary antibody was added for staining. […] The cells were incubated with the secondary antibodies at 4° C. for 30 min, then washed with FACS buffer twice, and assayed on a flow cytometer (BD, FACS Celesta), and the results were analyzed using FlowJo (FlowJo, LLC) software.

[3] = molecular target: T2, human IL-4Rα expressed on cells; experiment: cell-based or functional assay
[4] = molecular target: T3, Biotin-labeled human IL-4Rα protein (SinoBiological, CAT #10402-H08H-B) (human, UniProt P24394 26-232, Biotin-labeled (sites not given)); experiment: SPR, Biacore 8K, biotinylated hIL-4Rα captured on SA chip, test protein as analyte
T3 construct: Bought reagent, captured on an SA sensor chip; also called hIL-4Rα; human IL-4Rα antigen protein
T3 sequence (looked up): T1 sequence (P24394 26-232 limits assumed)
Experimental: HBS-EP+buffer solution (10 mM HEPES, 150 mM NaCl, 3 mM EDTA, 0.05% surfactant P20) was used as the mobile phase. Each test protein was serially diluted 2-fold with HBS-EP+buffer solution and then injected as an analyte. The flow rate was set to 30 μL/min. […] Analysis was performed using Biacore 8K evaluation software (Cytiva), and data on the affinities of the test proteins were obtained.

[5] = molecular target: T2, human IL-4Rα expressed on cells; experiment: flow cytometry on TF-1 cells, anti-hFab-FITC secondary antibody
Experimental: as §1

## AZD1402-TAG: protein sequence from SEQ ID NO: 1 in WO2020200960A1 with a His tag fused at the C-terminus (SEQ ID NO: 52)
Human IL-4Rα protein
  Koff: 0.000102 s⁻¹
  Kon: 4.77e+06 M⁻¹ s⁻¹

## CCCC1O[C@@H]2C[C@H]3[C@@H]4CCC5=CC(=O)C=C[C@]5(C)[C@H]4[C@@H](O)C[C@]3(C)[C@]2(C(=O)CO)O1 (stereo partly drawn) [Free budesonide, budesonide]
[1]
  exposure of budesonide in serum, BALF and lung tissue (in words): low in all these tissues

B1: antibody-drug conjugate ADC-2 (other)
heavy: EVQLVESGGGLVQPGGSLRLSCAASGFTFSDYGMHWVRQAPGKGLEWVAFISSGSSIIYYADIVKGRSTISRDNAKNTLYLQMNSLRAEDTAVYYCTRGNKRGFFDYWGQGTLVTVSSASTKGPSVFPLAPCSRSTSESTAALGCLVKDYFPEPVTVSWNSGALTSGVHTFPAVLQSSGLYSLSSVVTVPSSSLGTKTYTCNVDHKPSNTKVDKRV
light: EIVLTQSPATLSLSPGERATLSCRASSSVPYMYWYQQKPGQAPRLLIYLTSNLASGIPARFSGSGSGTDFTLTISSLEPEDFAVYYCQQWRAYPPMLTFGGGTKVEIKRTVAAPSVFIFPPSDEQLKSGTASVVCLLNNFYPREAKVQWKVDNALQSGNSQESVTEQDSKDSTYSLSSTLTLSKADYEKHKVYACEVTHQGLSSPVTKSFNRGEC
modifications: budesonide linker-drug (Compound 2) coupled after TCEP reduction of 25G7-Fab; positions and drug loading not given; budesonide linker-drug (Compound 2, maleimide-(PEG)4-CH2CH2C(O)-Gly-Gly-Phe-Gly-NHCH2-O-budesonide) coupled after TCEP reduction of 25G7-Fab; positions and drug loading not given
[2]
  EC50 (read off the curve): ~0.3 nM
[3]
  IC50 value (nM) for blocking of IL-4 signaling pathway (HEK-Blue IL-4/IL-13 STAT6-SEAP reporter cells, recombinant human IL-4): 0.68 nM
  IC50 value (nM) for blocking of IL-13 signaling pathway (HEK-Blue IL-4/IL-13 STAT6-SEAP reporter cells, recombinant human IL-13): 10.6 nM

B2: 25G7-Fab (Fab, V domains shown)
VH: EVQLVESGGGLVQPGGSLRLSCAASGFTFSDYGMHWVRQAPGKGLEWVAFISSGSSIIYYADIVKGRSTISRDNAKNTLYLQMNSLRAEDTAVYYCTRGNKRGFFDYWGQGTLVTVSS
VL: EIVLTQSPATLSLSPGERATLSCRASSSVPYMYWYQQKPGQAPRLLIYLTSNLASGIPARFSGSGSGTDFTLTISSLEPEDFAVYYCQQWRAYPPMLTFGGGTKVEIKR
notes: Heavy chain is VH-CH1 (hu25G7-24-IgG4 VH-CH1), light chain is hu25G7-A LC; also called naked antibody 25G7-Fab; antibody 25G7-Fab
[2]
  EC50 (read off the curve): ~0.2 nM
[4]
  Kd: 0.0439 nM
  koff: 0.000206 s⁻¹
  kon: 4.69e+06 M⁻¹ s⁻¹
[3]
  IC50 value (nM) for blocking of IL-4 signaling pathway (HEK-Blue IL-4/IL-13 STAT6-SEAP reporter cells, recombinant human IL-4): 0.61 nM
  IC50 value (nM) for blocking of IL-13 signaling pathway (HEK-Blue IL-4/IL-13 STAT6-SEAP reporter cells, recombinant human IL-13): 14.6 nM
[5]
  EC50: 0.243 nM

B3: hu25G7 (antibody, human IgG4 S228P, kappa, V domains shown)
VH: B2 VH
VL: B2 VL
notes: Full-length humanized antibody
[2]
  EC50 (read off the curve): ~0.1 nM
[5]
  EC50: 0.247 nM
